Laboratory results as given in patent US20240124605A1 (published 2024).

Molecular target: T1, CD123-Fc (Sino Biological) (human, UniProt P26951 19-305)
T1 construct: Bought reagent; not shown: Fc of the bought fusion (detected with anti-human Fc, captured on AHC sensor)
T1 sequence: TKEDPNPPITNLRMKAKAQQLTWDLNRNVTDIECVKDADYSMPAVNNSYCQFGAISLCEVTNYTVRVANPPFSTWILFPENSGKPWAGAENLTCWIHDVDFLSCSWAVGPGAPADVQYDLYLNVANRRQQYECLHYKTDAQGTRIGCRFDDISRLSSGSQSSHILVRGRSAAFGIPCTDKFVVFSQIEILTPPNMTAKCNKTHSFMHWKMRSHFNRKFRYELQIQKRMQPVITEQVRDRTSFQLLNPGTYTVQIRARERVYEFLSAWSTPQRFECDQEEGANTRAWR
Experiment: ELISA: MBP fusion captured on anti-MBP antibody, detected with CD123-Fc + anti-human Fc HRP
Experimental: Parent and mutated variant D domains were expressed as MBP fusions in E. coli (T7 Express, New England Biolabs) by either IPTG (isopropylthio-(3-galactoside) induction for 4 hours at 37° C. in Luria broth containing antibiotics and 0.2% glucose or through auto-induction for 16 hours at 30° C. using MagicMedia (Life Technologies). Post induction, cells were pelleted, washed and resuspended in “leak-out buffer” comprising 200 mM Tris pH 7.5 and 20 mM EDTA. After incubation at 30° C. for 16 hours, supernatant containing MBP fusion proteins were assayed by ELISA for both target binding and expression. Supernatants were added to 96-well Immulon 4HBX microtiter plates coated with anti-MBP polyclonal antibody (Abcam) at 0.0032 ug/ml. Followed by washing, bound MBP fusion proteins were detected either with CD123-Fc (Sino Biological)+anti-human Fc HRP (Abcam) to assess CD123 binding, or with anti-MBP-HRP (New England Biolabs) to assess MBP fusion protein expression.

B1: 5B7L D domain as MBP fusion (designed binder, not shown: large carriers)
chain: MGSWIEFNMRLDAIYERLVALGGSEAELAAFEKEIAAFESELQAYKGKGNPEVEWLRKVAANIRLELQAYRHN
B1: binds.
